Assay results: article PMC4028238

tested on: Influenza A virus hemagglutinin (whole virus as assayed) (Influenza A virus H3N2 A/Texas/1977 (A/Texas/1/77)); assay: competition ELISA; details: PBS, room temperature, […] (0.5-500 nM) […] (5 nM)

Q: How did the relative binding affinity (IC50 ratio vs BV02) (IC50(BV02)/IC50) turn out when “AATTAACCCTCACTAAAGGGCTCTCACTCAAAACCGCAATACACTCAGCCCTTTAGTGAGGGTTAATT [BV19a]” was run?
A: 0.574

Q: Which relative binding affinity (IC50 ratio vs BV02) (IC50(BV02)/IC50) does the source give for “CTCACTAAAGGGCTGAGTCTCAAAACCGCAATACACTCAGCCCTTTAGTGAG [BV19g]” here?
A: 0.132

Q: How did the relative binding affinity (IC50 ratio vs BV02) (IC50(BV02)/IC50) turn out when “AACCCTCACTCCGACTCACTCAAAACCGCAATACACTCAGCCAGTGAGGGTT [BV19f]” was run?
A: 0.131

Q: Which relative binding affinity (IC50 ratio vs BV02) (IC50(BV02)/IC50) does the source give for “TCTCAGCCCCCGCTGAGTCAAAGCGCACCCCCCCCCCCCCCCCTGCGCTTAA [BV37e]” here?
A: 0.995

Q: With “GTAAATACCTCTGAAATAATATCTCCATGACAGAGTAAGTCCATGAGAACTGACGATGCAAGTCTGTC [S3]” as the sequence, how does the relative binding affinity (IC50 ratio vs BV02) (IC50(BV02)/IC50) read?
A: 0.7

Q: Which relative binding affinity (IC50 ratio vs BV02) (IC50(BV02)/IC50) does the source give for “TTCCTCAGCAAAATAGCGGGGCTGAGCAACCGCAATACACTGGTAAAAAGTGCGGTTAAGA [BV37a]” here?
A: 0.874

Q: Which relative binding affinity (IC50 ratio vs BV02) (IC50(BV02)/IC50) does the source give for “AATTAACCCTCACTAAAGGGCTGAGTCTCAAAACCGCAATACACTGGTTGTATGTTAATTGGGAGTGA [BV18]” here?
A: 7.26

Q: For “TCATTCTCAGTAAAGGGCTGAGTCAAACCGCAATACACTGGTAAAAAGTGCGGTTAGCGAG [BV27o]”, which relative binding affinity (IC50 ratio vs BV02) (IC50(BV02)/IC50) is on record?
A: 0.116

Q: Which IC50 does the source give for “AATTAACCCTCACTAAAGGGCTGAGTCTCAAAACCGCAATACACTGGTTGTATGGTCGAATAAGTTAA [BV02]” here?
A: 55 nM

Q: And the relative binding affinity (IC50 ratio vs BV02) (IC50(BV02)/IC50)?
A: 1

Q: “AACGCTCACTACCCCCCCCCCAACCCCCCCCCCAACCCCCCCCCCAGTGAGCGTT [BV45b]” was tested. Which relative binding affinity (IC50 ratio vs BV02) (IC50(BV02)/IC50) did it give?
A: 15.1

Q: Which relative binding affinity (IC50 ratio vs BV02) (IC50(BV02)/IC50) does the source give for “AACGCTCACTCCCCCCCCCCCCCCAAGAAGAACCCCCCCCCCCCCAGTGAGCGTT [BV42b]” here?
A: 14.9

Q: Which relative binding affinity (IC50 ratio vs BV02) (IC50(BV02)/IC50) does the source give for “TCCTCAGTAAAGGGCTGAGTCAAAACCGCAATACACTGGTAAAAAGTGCGGTTAG [BV27i]” here?
A: 0.065

Q: For “AACGCTCACTCCCCCAAGAACCCCCCCCCCCTGACCCCCCCCCCCAGTGAGCGTT [BV45d]”, which relative binding affinity (IC50 ratio vs BV02) (IC50(BV02)/IC50) is on record?
A: 10.7

Q: How did the relative binding affinity (IC50 ratio vs BV02) (IC50(BV02)/IC50) turn out when “TCCTCAGCAAAATAGCGGGGCTGAGTCAAACCGCAATACACTGGTAAAAAGTGCGGTTAAG [BV37b]” was run?
A: 1

Q: “AACGCTCACTCCCCCCCCCCCACCCCCCCCCCCACCCCCCCCCCCAGTGAGCGTT [BV35o]” was tested. Which relative binding affinity (IC50 ratio vs BV02) (IC50(BV02)/IC50) did it give?
A: 9.92

Q: “AACGCTCACTCCCCCAAGAACCCCCCCCCCATGCACCCCCCCCCCAGTGAGCGTT [BV45e]” was tested. Which relative binding affinity (IC50 ratio vs BV02) (IC50(BV02)/IC50) did it give?
A: 11.4

Q: How did the relative binding affinity (IC50 ratio vs BV02) (IC50(BV02)/IC50) turn out when GCTGAGTCTCAAAACCGCAATACACTGGTT [BV26] was run?
A: 0.792

Q: For “GGCTGAGTCAAACCGCCTAACACTGGTACAATGGCGGTTAAGTT [BV27m]”, which relative binding affinity (IC50 ratio vs BV02) (IC50(BV02)/IC50) is on record?
A: 0.012

Q: How did the relative binding affinity (IC50 ratio vs BV02) (IC50(BV02)/IC50) turn out when “TCCTCAGCAAAATAGCGGGGCTGAGTCTCAAACCGCAATACACTGGTAAAAAGTGCGGTTA [BV37c]” was run?
A: 7.56

Q: How did the relative binding affinity (IC50 ratio vs BV02) (IC50(BV02)/IC50) turn out when “AATTAACCCTCACTAAAGGGCTGAGTCTCAAAACGTTTTGAGACTCAGCCCTTTAGTGAGGGTTAATT [BV11]” was run?
A: 0.124

Q: How did the relative binding affinity (IC50 ratio vs BV02) (IC50(BV02)/IC50) turn out when “AATTAACCCTCCTAAAGGGTCTGAGTCTCAAAACCGCAATACACTCAGCCCTTTAGTGAGGGTTAATT [BV19l]” was run?
A: 0.004

Q: How did the relative binding affinity (IC50 ratio vs BV02) (IC50(BV02)/IC50) turn out when “AATTAAGCCTGACTTAAGGGGTGAGTCTCAAAACCGCAATACACTCAGCCCTTTAGTGAGGGTTAATT [BV19j]” was run?
A: 0.071

Q: For “GTCACTAAAGGGCTGAGTCAAACCGCAATACACTGGTTGTATGGTCGGTTAAGTT [BV27f]”, which relative binding affinity (IC50 ratio vs BV02) (IC50(BV02)/IC50) is on record?
A: 0.75

Q: For “GGCTCACTAAAGGGCTGAGTCTCAAAACCGCAATACACTCAGCCCTTTAGTGAGGGTTAATTTTAAAGG [BV19c]”, which relative binding affinity (IC50 ratio vs BV02) (IC50(BV02)/IC50) is on record?
A: 0.086

Q: For “TCCTCAGTAAAGGGCTGAGAAACCGCAATACACTGGTAAAAAGTGCGGTTAAGTT [BV27g]”, which relative binding affinity (IC50 ratio vs BV02) (IC50(BV02)/IC50) is on record?
A: 0.093

Q: “AACGCTCACTCCCCCAAGAACCCCCCCCCCCCTCCCCCCCCCCCCAGTGAGCGTT [BV45c]” was tested. Which relative binding affinity (IC50 ratio vs BV02) (IC50(BV02)/IC50) did it give?
A: 11.7

Q: How did the relative binding affinity (IC50 ratio vs BV02) (IC50(BV02)/IC50) turn out when CACCACCACCACCACCACCACCACCACCAC [BV24b] was run?
A: 0.05

Q: How did the relative binding affinity (IC50 ratio vs BV02) (IC50(BV02)/IC50) turn out when “AACCCTCACTCTCAAAACCGCAATACAGTGAGGGTT [BV19h]” was run?
A: 0.016

Q: Which relative binding affinity (IC50 ratio vs BV02) (IC50(BV02)/IC50) does the source give for “AACGCTCACTCCCCCCCCCCCCCCCCCACCCCCCCCCCCCCCCCCAGTGAGCGTT [BV35p]” here?
A: 9.88

Q: “CTCACTAAAGGGCTGAGTCAAACCGCAATACACTGGTTGTATGGTCGAATAAGTT [BV27]” was tested. Which relative binding affinity (IC50 ratio vs BV02) (IC50(BV02)/IC50) did it give?
A: 0.116

Q: “TCCTCAGTAAAGGGCTGAGTCAAACCGCAATACACTGGTAAAAAGTGCGGTTAAG [BV27h]” was tested. Which relative binding affinity (IC50 ratio vs BV02) (IC50(BV02)/IC50) did it give?
A: 0.092

Q: With “AATTAACCCTCACTAAAGCCGACTCACTCAAAACCGCAATACACTCAGCCCTTTAGTGAGGGTTAATT [BV19b]” as the sequence, how does the relative binding affinity (IC50 ratio vs BV02) (IC50(BV02)/IC50) read?
A: 1.26
